Data from patent US20100119588A1.
Where two headings read alike, the source gives them in different places.

Assays:
[1] = target: hemagglutinin H1 on influenza virus A/Puerto Rico/8/34 strain (H1N1) (influenza virus A/Puerto Rico/8/34 (H1N1)) (UniProt P03452); experiment: cell-based or functional assay
[2] = target: hemagglutinin H1 on influenza virus A/Puerto Rico/8/34 strain (H1N1) (influenza virus A/Puerto Rico/8/34 (H1N1)) (UniProt P03452); experiment: cell-based or functional assay; remark: listed apart in the source

| Substance | IC50(µM), plaque assay, infection of MDCK cells [1] [µM] | IC50(µM), plaque assay, infection of MDCK cells [2] [µM] |
| --- | --- | --- |
| C18-s2(1-2) (C18-AR peptide amide) | > 100 | – |
| C18-s2(1-3) (C18-ARL peptide amide) | > 100 | – |
| C18-s2(1-4) (C18-ARLP peptide amide) | 0.9 | – |
| C18-s2(1-5) (C18-ARLPR peptide amide) | 3.1 | 0.35 |
| C18-s2(1-6) (C18-ARLPRT peptide amide) | 3.5 | – |
| C18-s2(1-7) (C18-ARLPRTM peptide amide) | 7.1 | – |
| C18-s2(1-8) (C18-ARLPRTMV peptide amide) | – | 2.4 |
| C18-s2(2-8) (C18-RLPRTMV peptide amide) | 9.2 | – |
| C18-s2(3-8) (C18-LPRTMV peptide amide) | > 100 | – |
| C18-s2(4-8) (C18-PRTMV peptide amide) | > 100 | – |
| C18-s2(5-11) (C18-RTMVHPK peptide amide) | 11 | – |
| C18-s2(8-15) (C18-VHPKPAQP peptide amide) | 59 | – |
| C18-s2(r1-4) (C18-PLRA peptide amide) | – | 0.41 |
| C18-s2(r1-5) (C18-RPLRA peptide amide) | – | 0.55 |
| C18-s2(r1-8) (C18-VMTRPLRA peptide amide) | 93 | – |
